Source: the supplement of paper PMC7877785
± gives the uncertainty stated by the source.

Experiment: self-splicing fitness, log relative to wild type (ln ratio); higher = more splicing; Tetrahymena group I intron in knt gene, E. coli kanamycin selection, DiMSum; sequences stand for … in CUCUCU…GGAGGGAAAAGUUAUCAGGCAUGCACCUGGUAGCUAGUCUUUAAACCAAUAGAUUGCAUCGGUUUAAAAGGCAAGACCGUCAAAUUGCGGGAAAGGGGUCAACAGCCGUUCAGUACCAAGUCUCAGGGGAAACUUUGAGAUGGCCUUGCAAAGGGUAUGGUAAUAAGCUGACGGACAUGGUCCUAACCACGCAGCCAAGUCCUAAGUCAACAGAUCUUCUGUUGAUAUGGAUGCAGUUCACAGACUAAAUGUCGGUCGGGGAAGAUGUAUUCUUCUCAUAAGAUAUAGUCGGACCUCUCCUUAAUGGGAGCUAGCGGAUGAAGUGAUGCAACACUGGAGCCGCUGGGAACUAAUUUGUAUGCGAAAGUAUAUUGAUUAGUUUUGGAGUACUCGUGGUCG
Outline: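 A randomised library covering all eight P1ex-region intron nucleotides was built with the intron in the knt kanamycin-resistance gene on pET-22b(+) and held in E. coli BL21(DE3). Cells were grown overnight at 37°C or 30°C on LB agar, with or without 25 μg/mL kanamycin, plus 100 μg/mL carbenicillin, 50 μM IPTG and 0.2% rhamnose, and pooled colonies were amplicon-sequenced on an Illumina HiSeq 2500. DiMSum fitness is the error-weighted combination of wild-type-normalised replicate fold changes, kanamycin versus none.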

Sequence	self-splicing fitness (ln) (30 °C)	self-splicing fitness (ln) (37 °C)
AUGGAGCAAUAUUACGGUAU	-3.49 ± 0.16	-1.32 ± 0.1
UUCCAGCAAUAUUACGCCAA	-0.739 ± 0.12	-0.362 ± 0.17
UUGUAGCAAUAUUACGUUGC	–	-2.29 ± 0.46
UUUCAGCAAUAUUACGAUAC	-2.17 ± 0.25	-2.02 ± 0.26
AGGAAGCAAUAUUACGCUCA	-0.332 ± 0.13	-0.339 ± 0.16
AUACAGCAAUAUUACGAGAA	-2.21 ± 0.25	-1.79 ± 0.16
AAAUAGCAAUAUUACGCCAA	-2.54 ± 0.18	-1.86 ± 0.13
CUCCAGCAAUAUUACGCAAU	-4.47 ± 0.41	-2.43 ± 0.2
CCUCAGCAAUAUUACGGCAG	-2.91 ± 0.18	-1.15 ± 0.13
CCCUAGCAAUAUUACGGGCC	-3.25 ± 0.19	-1.74 ± 0.27
AAACAGCAAUAUUACGUAAA	-2.37 ± 0.068	-1.13 ± 0.074
AAACAGCAAUAUUACGCUCG	-1.11 ± 0.083	-0.7 ± 0.11
CAGGAGCAAUAUUACGGAAG	-2.2 ± 0.13	-1.67 ± 0.14
UCGUAGCAAUAUUACGGGUA	-1.57 ± 0.17	-0.425 ± 0.16
CGGGAGCAAUAUUACGUAGU	–	-1.78 ± 0.29
GGGCAGCAAUAUUACGCAGG	-2.6 ± 0.18	-1.03 ± 0.19
UCUUAGCAAUAUUACGAAGU	-1.65 ± 0.15	-1.42 ± 0.27
CUAUAGCAAUAUUACGCAGU	-3.51 ± 0.2	-2.55 ± 0.27
CUGAAGCAAUAUUACGCCAA	-3.31 ± 0.41	–
CUGUAGCAAUAUUACGGCUC	-2.55 ± 0.19	-2.13 ± 0.29
CAGCAGCAAUAUUACGCAGG	-2.56 ± 0.12	-0.864 ± 0.11
CUAGAGCAAUAUUACGUAAA	-3.81 ± 0.24	-1.84 ± 0.25
AGUGAGCAAUAUUACGCUUU	-4.07 ± 0.32	-3.04 ± 0.4
UCACAGCAAUAUUACGCGUC	-3.18 ± 0.31	-1.55 ± 0.16
CUAAAGCAAUAUUACGUUGG	-2.52 ± 0.12	-0.891 ± 0.1

Sequence	self-splicing fitness (ln) (30 °C)	self-splicing fitness (ln) (37 °C)
UCUUAGCAAUAUUACGGCGC	-2.61 ± 0.39	–
CGGUAGCAAUAUUACGUCUC	-2.46 ± 0.12	-1.86 ± 0.13
CAAAAGCAAUAUUACGUGUU	-3.61 ± 0.13	-2.37 ± 0.13
UUUCAGCAAUAUUACGUCAC	-3.13 ± 0.43	-2.86 ± 0.35
CAAAAGCAAUAUUACGCGGC	-2.85 ± 0.21	-2.21 ± 0.28
AGGUAGCAAUAUUACGUAUU	-2.78 ± 0.018	-1.45 ± 0.035
GGAGAGCAAUAUUACGGUAU	–	-2.2 ± 0.34
UUGCAGCAAUAUUACGUAAG	-0.486 ± 0.089	0.527 ± 0.11
ACAUAGCAAUAUUACGAUAA	-2.16 ± 0.13	-1.72 ± 0.17
CAAUAGCAAUAUUACGACGC	-2.73 ± 0.19	-0.616 ± 0.17
GCUUAGCAAUAUUACGCAAC	-2.43 ± 0.22	-0.318 ± 0.13
CAGAAGCAAUAUUACGACAG	-0.805 ± 0.15	-0.248 ± 0.23
UCCUAGCAAUAUUACGGGAU	-4.1 ± 0.22	-2.18 ± 0.17
AAAUAGCAAUAUUACGCGGU	-2.71 ± 0.18	-1.93 ± 0.2
CAGGAGCAAUAUUACGGUGC	-2.68 ± 0.26	-1.76 ± 0.28
AAAAAGCAAUAUUACGCCGG	-1.62 ± 0.11	0.057 ± 0.12
CUAAAGCAAUAUUACGUGGA	-3.7 ± 0.2	-2.64 ± 0.19
UGGUAGCAAUAUUACGUGAA	-1.96 ± 0.14	-1.57 ± 0.15
CGAAAGCAAUAUUACGGGAG	-3.09 ± 0.12	-2.56 ± 0.13
CGGGAGCAAUAUUACGGCAG	-2.71 ± 0.21	-1.12 ± 0.26
GGGAAGCAAUAUUACGCGUU	-2.67 ± 0.24	-1.49 ± 0.2
CAACAGCAAUAUUACGAUAA	-2.08 ± 0.1	-1.67 ± 0.11
UGAUAGCAAUAUUACGUUAG	-1.92 ± 0.1	-1.57 ± 0.15
UGCCAGCAAUAUUACGUGCA	-2.55 ± 0.1	-1.53 ± 0.12
UUUUAGCAAUAUUACGGGAA	-1.16 ± 0.16	-1.19 ± 0.13

Sequence	self-splicing fitness (ln) (30 °C)	self-splicing fitness (ln) (37 °C)
UGCGAGCAAUAUUACGAUCU	-1.84 ± 0.21	-1.06 ± 0.16
UCGAAGCAAUAUUACGCGGA	-3.61 ± 0.39	-1.35 ± 0.17
CGUGAGCAAUAUUACGUUAC	-3.96 ± 0.43	–
CGGUAGCAAUAUUACGAUUA	-2.71 ± 0.31	0.554 ± 0.2
AACAAGCAAUAUUACGCGCA	-0.604 ± 0.066	0.104 ± 0.094
AGUCAGCAAUAUUACGAGCG	-0.195 ± 0.09	-0.556 ± 0.1
AGUCAGCAAUAUUACGGGGU	-4.54 ± 0.31	-1.5 ± 0.15
CUGAAGCAAUAUUACGUAAA	-2.54 ± 0.33	-1.7 ± 0.46
UAUCAGCAAUAUUACGCCGU	-1.43 ± 0.24	0.487 ± 0.22
GCCUAGCAAUAUUACGCUAA	-1.28 ± 0.11	0.00419 ± 0.12
CCAUAGCAAUAUUACGAAUG	-2.11 ± 0.08	-1.15 ± 0.095
UGAUAGCAAUAUUACGUAAG	-1.52 ± 0.093	-0.601 ± 0.11
GCUCAGCAAUAUUACGUACU	-0.953 ± 0.087	-0.636 ± 0.086
UGGCAGCAAUAUUACGAAUC	-2.3 ± 0.25	–
GCGGAGCAAUAUUACGAUGG	-1.16 ± 0.26	-1.02 ± 0.32
CCACAGCAAUAUUACGCAAG	-1.34 ± 0.064	-0.406 ± 0.072
UAAAAGCAAUAUUACGGCCC	-2.11 ± 0.34	-1.28 ± 0.33
CAAAAGCAAUAUUACGUUUG	-3.08 ± 0.14	-2.55 ± 0.18
CCGCAGCAAUAUUACGCUCA	–	-1.28 ± 0.21
GGUGAGCAAUAUUACGUGCG	-0.62 ± 0.12	-0.505 ± 0.18
GAGAAGCAAUAUUACGGCGG	-1.9 ± 0.12	-1.25 ± 0.15
UCCGAGCAAUAUUACGGUCC	-3.08 ± 0.24	-3.35 ± 0.33
UCUGAGCAAUAUUACGCAUA	-2.73 ± 0.17	-1.19 ± 0.15
CACUAGCAAUAUUACGAAUU	-2.88 ± 0.19	-2.77 ± 0.23
CCAUAGCAAUAUUACGUUCG	-0.579 ± 0.08	-0.674 ± 0.1

Sequence	self-splicing fitness (ln) (30 °C)	self-splicing fitness (ln) (37 °C)
GACAAGCAAUAUUACGCUUC	-3.75 ± 0.26	-2.25 ± 0.25
CCCCAGCAAUAUUACGUUAU	-4.15 ± 0.15	-3.29 ± 0.22
AUCAAGCAAUAUUACGUCGC	-4 ± 0.2	-2.65 ± 0.11
UAUUAGCAAUAUUACGCAAA	-1.67 ± 0.3	-1.83 ± 0.27
CAGCAGCAAUAUUACGACGG	-0.183 ± 0.064	0.472 ± 0.1
CGUAAGCAAUAUUACGUGAA	-3.19 ± 0.14	-1.61 ± 0.15
UGGAAGCAAUAUUACGUGAU	-2.32 ± 0.2	-1.67 ± 0.22
UGCAAGCAAUAUUACGAAAC	–	-2.65 ± 0.36
GUACAGCAAUAUUACGAAGU	-3.32 ± 0.17	-1.67 ± 0.18
CCAAAGCAAUAUUACGGGGG	-3.14 ± 0.18	-1.5 ± 0.16
CAGUAGCAAUAUUACGACGG	-0.119 ± 0.085	0.411 ± 0.11
CGUGAGCAAUAUUACGAGCG	-3.57 ± 0.3	-2.52 ± 0.29
AGCUAGCAAUAUUACGACCA	-0.512 ± 0.17	-0.124 ± 0.17
AGACAGCAAUAUUACGACGC	-0.912 ± 0.086	-0.726 ± 0.11
AUAUAGCAAUAUUACGUCCC	-1.01 ± 0.17	0.139 ± 0.32
GUGGAGCAAUAUUACGUACU	-2.19 ± 0.37	-2.2 ± 0.32
CCCCAGCAAUAUUACGUCCU	-2.36 ± 0.17	-2.14 ± 0.22
UUCGAGCAAUAUUACGUGGA	-2.74 ± 0.22	-2.58 ± 0.2
CCUAAGCAAUAUUACGUUUC	-2.52 ± 0.2	-2.97 ± 0.27
CUUGAGCAAUAUUACGCCGG	-4.04 ± 0.46	-1.65 ± 0.47
CAUCAGCAAUAUUACGGUUU	-2.29 ± 0.079	-0.832 ± 0.094
GAAAAGCAAUAUUACGCAUU	-3.24 ± 0.17	-0.376 ± 0.11
GUAUAGCAAUAUUACGCUGA	-1.91 ± 0.2	-1.81 ± 0.17
